The values that follow are results of earlier work, collected in PMC7538161.

pKd: −log10 of the molar value.

This data set concerns the target CaMKII calmodulin-binding element peptide (Peptide A) calmodulin-binding element peptide (Homo sapiens) (UniProt Q9UQM7).

Chain of CaMKII hub hub domain (Q9UQM7 345-475): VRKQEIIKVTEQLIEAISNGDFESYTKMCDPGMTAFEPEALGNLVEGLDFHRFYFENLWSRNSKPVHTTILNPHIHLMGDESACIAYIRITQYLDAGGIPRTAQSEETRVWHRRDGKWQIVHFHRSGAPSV
Chain of CaMKII calmodulin-binding element peptide (Peptide A) calmodulin-binding element peptide (Homo sapiens) (Q9UQM7 290-309): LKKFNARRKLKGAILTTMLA

On to “CaMKII hub hub domain (from UniProt Q9UQM7)”, for which the pKd (commonly the Kd on a negative log10 scale, so that one unit is a factor of ten) was 4.05.
